# T1: N-terminus peptide (Aβ1-5) of the monomeric amyloid β-protein
# T1 construct: Synthetic 5-residue peptide
# T1 peptide: DAEFR
# Assays:
# amylospheroid 42 [1] = target: T2, amylospheroid 42 (Homo sapiens (Human), UniProt P05067 672-713); assay: SPR, ratio of Kd values (40Aβ against 42ASPD)
# T2 construct: also called 42ASPD; ASPD
# Experimental: (§1) 10 μg/ml amylospheroid (42ASPD), amyloid β monomer (42Aβ, 40Aβ), and Aβ fibril (fibril) prepared from 40Aβ were coupled to CM5 sensor chips of BIACore 3000 (BIAcore) at a concentration of […] in 50 mM acetate buffer. With the use of an antibody solution subjected to two-fold serial dilution from the maximal concentration of 100 nM in a buffer (10 mM HEPES, pH 7.4, 0.15 M NaCl, 3 mM EDTA, 0.005% Surfactant P20), the association rate constant and the dissociation rate constant were determined. With the use of these constants, the dissociation constant was calculated by the following equation.
# (§2) Through the same procedure as that in Example 3(3), 42ASPD, 40Aβ (Aβ monomer), and Aβ fibril (42 fibril) prepared from 42Aβ were coupled to CM5 sensor chips, and dissociation constants of the hamster antibody haASD2, the humanized antibody huASD2, and the anti-Aβ antibody 3D6 (US 20030165496 A1) with respect to the above-described proteins were determined. […]
# amylospheroid 42 [2] = target: T2, amylospheroid 42; assay: SPR, ratio of Kd values (42 fibril against 42ASPD)
# Experimental: as §1, §2
# amylospheroid 42 [3] = target: T2, amylospheroid 42; assay: SPR (BIAcore), antigen on CM5 chip, antibody in solution
# Experimental: as §1
# (§3) Through the same procedure as that in Example 3(3), 42ASPD, 40Aβ (Aβ monomer), and Aβ fibril (42 fibril) prepared from 42Aβ were coupled to CM5 sensor chips, and dissociation constants of the hamster antibody haASD2, the humanized antibody huASD2, and the anti-Aβ antibody 3D6 (US 20030165496 A1) with respect to the above-described proteins were determined. The anti-Aβ antibody 3D6 was produced as follows: synthesis genes corresponding to the mouse antibody light chain variable domain 3d6vl.aa and the synthesis gene corresponding to the heavy chain variable domain 3d6vh.aa of the same described in US 20030165496 A1 were produced by a conventional method, and were joined to the light chain constant domain and the heavy chain constant domain of a known mouse antibody, respectively, on the basis of the information of the aforementioned patent; by so doing, it was produced as a mouse IgG2b/κ molecule.
# [4] = target: T3, monomeric amyloid β40-protein (Aβ1-40); assay: as above
# T3 construct: also called 40Aβ; Aβ1-40 monomer
# T3 sequence (peptide, as listed by the source): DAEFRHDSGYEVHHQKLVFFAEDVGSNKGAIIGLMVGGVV
# Experimental: as §1, §3
# [5] = target: T4, Aβ fibril (42 fibril) prepared from 42Aβ (Homo sapiens (Human), UniProt P05067 672-713); assay: as above
# T4 construct: Fibrillar self-assembly of Aβ1-42; also called amyloid fibril
# T4 sequence (P05067 672-713 limits assumed): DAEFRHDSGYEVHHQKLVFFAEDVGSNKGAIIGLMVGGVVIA
# Experimental: as §1, §3
# [6] = target: T1, N-terminus peptide (Aβ1-5) of the …; assay: competitive ELISA with 5-residue Aβ peptides, same method as Example 4
# Description: Which one of Aβ five residue peptides the humanized antibody huASD2 was joined to was examined using the same method as that in Example 4.
# T2 sequence (P05067 672-713 limits assumed): as above
binder,measurement,setting,value
"humanized antibody huASD2 (antibody, V domains shown, Humanized from haASD2; expressed from plasmids ASD2RHApG1D200 (heavy chain) and ASD2RLApLN100 (light chain); also called RHA/RLA; ASD2RHA/ASD2RLA) VH: EVQLVESGGGLVKPGGSLRLSCAASGFTFSDYFMSWVRQAPGKGLEWVGGIEIKSYFYATYYFGSVKGRFTISRDDSKNTLYLQMNSLKTEDTAVYYCTTNREVGGLDNWGQGTLVTVSS VL: QSVLTQPSSLSASPGASASLTCTLRSGISVGGKNIYWYQQKPGSPPQYLLKYSSYSNKQLGPGVPSRFSGSKDASANAGILLISGLQSEDEADYYCSIHESNAYVFGGGTKLTVLG",fold higher affinity with ASPD than with amyloid β-monomer,amylospheroid 42 [1],~580 times
same,fold higher affinity with ASPD than with amyloid fibril,amylospheroid 42 [2],~6.4 times
same,Kd,amylospheroid 42 [3],0.18 nM
same,Kd,[4],105 nM
same,Kd,[5],1.15 nM
same,binding result,[6],binds

# From US20100297662A1 (TAO HEALTH LIFE PHARMA, published 2010)
